Measured values published in publication PMC9984488.

Legend:
[1] = target: 14-3-3τ (UniProt P27348); experiment: GST pull-down from co-transfected cells; details: reference: GST-HIP-55 wild type; sites S269,T291
[2] = target: MAP4K1 (UniProt Q92918); experiment: GST pull-down from transfected cells; details: reference: HIP-55 wild type; sites S269,T291

Substance | binding against the reference [1] | binding against the reference [2]
HIP-55 (from UniProt Q9UJU6) GST-HIP-55 S269A/T291A (HIP-55AA) | lost | 
HIP-55 (from UniProt Q9UJU6) HIP-55 S269A/T291A (HIP-55AA) |  | weaker
